Data set [1] has as its target T1, Escherichia coli RelE R81A (untagged, full-length toxin) (Escherichia coli, UniProt P0C077 1-95, R81A).
T1 construct: RelE toxin of the relBE locus, Escherichia coli, 95 residues, R81A active-site mutant; also called R81A active-site mutant
T1 sequence (looked up): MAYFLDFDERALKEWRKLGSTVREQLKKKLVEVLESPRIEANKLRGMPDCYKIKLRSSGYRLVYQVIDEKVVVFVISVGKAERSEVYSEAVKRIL
Kind of data set: crystal structure; RelB2E2 reconstituted from purified RelB and RelE R81A; crystals at 4°C, 1.6-2.0 M ammonium sulfate, 0.1 M Na acetate pH 4.6; space group P6(1)22; 2.8 Å. To be noted: both partners purified.

Data set [2] deals with the molecule itself. Kind of data set: not stated; isolated RelB and isolated RelE in solution; data not shown.

The stoichiometry N is the number of molecules, sites or subunits per partner or assembly.

B1: Escherichia coli RelB (untagged, intact antitoxin) (natural protein, UniProt P0C079 1-79, looked up)
chain: MGSINLRIDDELKARSYAALEKMGVTPSEALRLMLEYIADNERLPFKQTLLSDEDAELVEIVKERLRNPKPVRVTLDEL
notes: RelB antitoxin of the relBE locus, Escherichia coli, 79 residues (residues 2-79 of 79 seen in the structure); Untagged; Details of purification are in the Supplemental Experimental Procedures; source: E. coli, plasmid pSC2524HE encoding His-tagged RelE R81A and untagged RelB; purified by denaturation, ion exchange, gel filtration
Take B1: the binding result in data set [1] was “binds”. Further, the “stoichiometry N” value in data set [2] worked out at 4.

Source of the values: article PMC3507626, “The Crystal Structure of the Intact E. coli RelBE Toxin-Antitoxin Complex Provides the Structural Basis for Conditional Cooperativity” (Structure(London, England:1993), 2012).
